Reference: the supplement of paper PMC7877785
± gives the uncertainty stated by the source.

Assay: self-splicing fitness, log relative to wild type (ln ratio); higher = more splicing; Tetrahymena group I intron in knt gene, E. coli kanamycin selection, DiMSum; sequences stand for … in CUCUCU…GGAGGGAAAAGUUAUCAGGCAUGCACCUGGUAGCUAGUCUUUAAACCAAUAGAUUGCAUCGGUUUAAAAGGCAAGACCGUCAAAUUGCGGGAAAGGGGUCAACAGCCGUUCAGUACCAAGUCUCAGGGGAAACUUUGAGAUGGCCUUGCAAAGGGUAUGGUAAUAAGCUGACGGACAUGGUCCUAACCACGCAGCCAAGUCCUAAGUCAACAGAUCUUCUGUUGAUAUGGAUGCAGUUCACAGACUAAAUGUCGGUCGGGGAAGAUGUAUUCUUCUCAUAAGAUAUAGUCGGACCUCUCCUUAAUGGGAGCUAGCGGAUGAAGUGAUGCAACACUGGAGCCGCUGGGAACUAAUUUGUAUGCGAAAGUAUAUUGAUUAGUUUUGGAGUACUCGUGGUCG
Outline: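 The eight P1ex-region nucleotides of an intron in the knt kanamycin-resistance gene on pET-22b(+) were all randomised and the library put into E. coli BL21(DE3). Six replicate transformations were grown overnight at 37°C or 30°C on LB agar with or without 25 μg/mL kanamycin, together with 100 μg/mL carbenicillin, 50 μM IPTG and 0.2% rhamnose. Colonies were pooled and amplicon-sequenced on an Illumina HiSeq 2500. Fitness from DiMSum is the error-weighted combination of wild-type-normalised replicate fold changes, kanamycin over none.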

Row | Sequence | self-splicing fitness (ln) (30 °C) | self-splicing fitness (ln) (37 °C)
1 | ACACAGCAAUAUUACGCUAU | -2.81 ± 0.082 | -1.53 ± 0.079
2 | GGAUAGCAAUAUUACGUCCA | -1.4 ± 0.17 | -0.317 ± 0.19
3 | AUAUAGCAAUAUUACGGCUG | -0.816 ± 0.14 | 0.663 ± 0.19
4 | CAACAGCAAUAUUACGUGUC | -2.82 ± 0.13 | -2.04 ± 0.14
5 | CGGCAGCAAUAUUACGGAUA | -3.38 ± 0.22 | -2.39 ± 0.18
6 | GCGAAGCAAUAUUACGGCUC | -1.78 ± 0.17 | -2.01 ± 0.25
7 | CUUCAGCAAUAUUACGGCGU | -4.44 ± 0.24 | -1.8 ± 0.17
8 | GUUUAGCAAUAUUACGUAUU | -2.91 ± 0.21 | -1.38 ± 0.17
9 | UGUUAGCAAUAUUACGAGAG | -3.33 ± 0.33 | -3.15 ± 0.27
10 | UGAAAGCAAUAUUACGUAGA | -1.88 ± 0.097 | -1.56 ± 0.15
11 | UUAAAGCAAUAUUACGGAUC | -1.78 ± 0.24 | -0.2 ± 0.21
12 | AUGCAGCAAUAUUACGCGUG | -3.92 ± 0.17 | -2.59 ± 0.18
13 | UGACAGCAAUAUUACGUUGA | -1.99 ± 0.094 | -1.9 ± 0.12
14 | GACUAGCAAUAUUACGCUUU | -2.59 ± 0.19 | -1.66 ± 0.16
15 | UAACAGCAAUAUUACGCAGC | -4.12 ± 0.37 | -3.15 ± 0.4
16 | UACAAGCAAUAUUACGGGCA | -0.0705 ± 0.063 | 0.152 ± 0.072
17 | GCACAGCAAUAUUACGAGAA | -2.66 ± 0.25 | -0.185 ± 0.12
18 | AGGCAGCAAUAUUACGUAAA | -2 ± 0.085 | -0.673 ± 0.099
19 | UAGUAGCAAUAUUACGCUAU | -1.34 ± 0.21 | -1.16 ± 0.25
20 | GUAAAGCAAUAUUACGUACG | -0.843 ± 0.069 | -0.015 ± 0.1
21 | GGAGAGCAAUAUUACGACUC | -1.21 ± 0.23 | -0.0732 ± 0.34

Row | Sequence | self-splicing fitness (ln) (30 °C) | self-splicing fitness (ln) (37 °C)
22 | UGCGAGCAAUAUUACGUCUU | -2.61 ± 0.16 | -2.04 ± 0.16
23 | AAAUAGCAAUAUUACGGGGA | -3.71 ± 0.25 | -2.86 ± 0.19
24 | UUACAGCAAUAUUACGGGAU | -3.85 ± 0.21 | -2.69 ± 0.13
25 | AAACAGCAAUAUUACGAUAU | -1.82 ± 0.08 | -0.63 ± 0.097
26 | UGCAAGCAAUAUUACGUACA | -0.594 ± 0.062 | 0.366 ± 0.092
27 | GUGUAGCAAUAUUACGCACA |  | -1.5 ± 0.2
28 | CAGUAGCAAUAUUACGUCUU | -1.17 ± 0.067 | 0.135 ± 0.076
29 | AAGUAGCAAUAUUACGCACU | -0.686 ± 0.095 | -0.854 ± 0.14
30 | CCUCAGCAAUAUUACGAAGC | -2.92 ± 0.15 | -2.44 ± 0.25
31 | AGGAAGCAAUAUUACGGCUG | -0.459 ± 0.13 | -0.0568 ± 0.15
32 | AAUUAGCAAUAUUACGAGCG | -1.1 ± 0.096 | -0.749 ± 0.099
33 | UUCGAGCAAUAUUACGCUGU | -3.54 ± 0.2 | -2.14 ± 0.21
34 | UUGUAGCAAUAUUACGAUGC |  | -1.92 ± 0.43
35 | GUGUAGCAAUAUUACGGGCU | -2.88 ± 0.46 | -0.129 ± 0.14
36 | GAAAAGCAAUAUUACGCGAA | -2.75 ± 0.2 | -1.13 ± 0.18
37 | CGCUAGCAAUAUUACGUAUA | -3.36 ± 0.15 | -2.55 ± 0.16
38 | CUGUAGCAAUAUUACGCGGU | -3.17 ± 0.23 | -2.33 ± 0.24
39 | AUGAAGCAAUAUUACGGUCA | 0.145 ± 0.07 | 0.605 ± 0.1
40 | UUCUAGCAAUAUUACGUAUU | -3.61 ± 0.33 | -2.57 ± 0.25
41 | GAAUAGCAAUAUUACGUAAA | -1.94 ± 0.13 | -2.03 ± 0.14
42 | CACUAGCAAUAUUACGGUCU | -1.55 ± 0.078 | -0.782 ± 0.11
